Values of other authors as cited in article PMC2888830.

Molecular target: integrin αIIbβ3 (Homo sapiens) (UniProt P08514)

Substance: disagregin (from UniProt P36235)
- Kd: 40 nM
